From US8143216B2, “Modified human growth hormone” (Ambrx, Inc., priority 2004, dated 2012)

Target: T1, rat GHR ECD (L43R) (Rattus norvegicus, UniProt P16310, L61R)
T1 construct: (GHR ECD, amino acids S29-T238) was cloned into pET20b vector; made in house
T1 sequence (P16310 47-256 L61R): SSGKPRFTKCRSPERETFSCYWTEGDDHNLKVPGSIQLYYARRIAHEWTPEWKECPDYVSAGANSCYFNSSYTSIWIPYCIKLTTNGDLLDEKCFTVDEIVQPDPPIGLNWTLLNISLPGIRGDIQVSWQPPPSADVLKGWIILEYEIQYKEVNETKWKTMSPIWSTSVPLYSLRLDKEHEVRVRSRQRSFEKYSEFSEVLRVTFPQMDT
Assay: Biacore analysis of binding of GH to GHR
Conditions: rat GHR ECD (L43R) immobilized on a CM5 chip, bivalent analyte model
Procedure: Cloning and purification of rat GH receptor The extracellular domain of rat GH receptor (GHR ECD, amino acids S29-T238) was cloned into pET20b vector (Novagen) between Nde I and Hind III sites in frame with C-terminal 6H is tag. A mutation of L43 to R was introduced to further approximate the human GH receptor binding site (Souza et al., Proc Natl Acad Sci USA. (1995) 92(4): 959-63). Recombinant protein was produced in BL21 (DE3) E. coli cells (Novagen) by induction with 0.4 mM IPTG at 30° C. for 4-5 hours. After lysing the cells, the pellet was washed four times by resuspending in a dounce with 30 mL of 50 mM Tris, pH 7.6, 100 mM NaCl, 1 mM EDTA, 1% Triton X-100, and twice with the same buffer without Triton X-100. […] Refolding was accomplished by means of passing an aliquot of the inclusion body solution through a S100 (Sigma) gel filtration column, equilibrated with 50 mM Tris, pH 7.8, 1 M L-arginine, 3.7 mM cystamine, 6.5 mM cysteamine. Fractions containing soluble protein were combined and dialyzed against 50 mM Tris, pH 7.6, 200 mM NaCl, 10% glycerol. The sample was briefly centrifuged to remove any precipitate and incubated with an aliquot of Talon resin (Clontech), according to manufacturer's instructions. After washing the resin with 20 volumes of dialysis buffer supplemented with 5 mM imidazole, protein was eluted with 120 mM imidazole in dialysis buffer. Finally, the sample was dialyzed overnight against 50 mM Tris, pH 7.6, 30 mM NaCl, 1 mM EDTA, 10% glycerol, centrifuged briefly to remove any precipitate, adjusted to 20% glycerol final concentration, aliquoted and stored at −80 C. Concentration of the protein was measured by OD(280) using calculated extinction coefficient of ε=65,700 M^−1*cm^−1.
Approximately 600-800 RUs of soluble GHR ECD was immobilized on a Biacore™ CM5 chip, using a standard amine-coupling procedure, as recommended by the manufacturer. […] See, e.g., Cunningham et al. J Mol. Biol. (1993) 234(3): 554-63 and Wells J A. Proc Natl Acad Sci USA (1996) 93(1): 1-6).
Various concentrations of wild type or mutant GH (0.1-300 nM) in HBS-EP buffer (Biacore™, Pharmacia) were injected over the GHR surface at a flow rate of 40 μl/min for 4-5 minutes, and dissociation was monitored for 15 minutes post-injection. The surface was regenerated by a 15 second pulse of 4.5M MgCl2. […] Reference cell with no receptor immobilized was used to subtract any buffer bulk effects and non-specific binding.
Kinetic binding data obtained from GH titration experiments was processed with BiaEvaluation 4.1 software (BIACORE™). […] Equilibrium dissociation constants (Kd) were calculated as ratios of individual rate constants (koff/kon).

kon [M⁻¹ s⁻¹] | Substance
680000 | R16pAF: hGH with p-acetyl-phenylalanine (pAF) substituted for R16
780000 | Y143pAF: hGH with p-acetyl-phenylalanine (pAF) substituted for Y143
600000 | G131pAF: hGH with p-acetyl-phenylalanine (pAF) substituted for G131
680000 | E88pAF: hGH with p-acetyl-phenylalanine (pAF) substituted for E88
70000 | R134pAF-30KD PEG: hGH polypeptide comprising p-acetyl-phenylalanine at position 134 covalently linked to 30 kDa PEG
170000 | F92pAF-20KD PEG: hGH comprising p-acetyl-phenylalanine at position 92 covalently linked to a 20 kDa PEG molecule
840000 | R134pAF: hGH with p-acetyl-phenylalanine (pAF) substituted for R134
840000 | Y111pAF: hGH with p-acetyl-phenylalanine (pAF) substituted for Y111
620000 | F92pAF-5KD PEG: hGH comprising p-acetyl-phenylalanine at position 92 covalently linked to a 5 kDa PEG molecule
70000 | S95pAF: hGH with p-acetyl-phenylalanine (pAF) substituted for S95
1.25e+06 | N12pAF: hGH with p-acetyl-phenylalanine (pAF) substituted for N12
680000 | R134pAF-5KD PEG: hGH comprising p-acetyl-phenylalanine at position 134 linked to 5 kDa PEG
130000 | F92pAF-30KD PEG: His-tagged hGH polypeptide comprising p-acetyl-phenylalanine at position 92 covalently linked to 30 kDa PEG
~6000 | Y103pAF: hGH with p-acetyl-phenylalanine (pAF) substituted for Y103
860000 | F92pAF: hGH with p-acetyl-phenylalanine (pAF) substituted for F92
660000 | Q91pAF: hGH with p-acetyl-phenylalanine (pAF) substituted for Q91
780000 | Y35pAF: hGH with p-acetyl-phenylalanine (pAF) substituted for Y35
640000 | K145pAF: hGH with p-acetyl-phenylalanine (pAF) substituted for K145
620000 | G136pAF: hGH with p-acetyl-phenylalanine (pAF) substituted for G136
580000 | A155pAF: hGH with p-acetyl-phenylalanine (pAF) substituted for A155
720000 | T135pAF: hGH with p-acetyl-phenylalanine (pAF) substituted for T135
720000 | K140pAF: hGH with p-acetyl-phenylalanine (pAF) substituted for K140
560000 | R94pAF: hGH with p-acetyl-phenylalanine (pAF) substituted for R94
680000 | F139pAF: hGH with p-acetyl-phenylalanine (pAF) substituted for F139
640000 | P133pAF: hGH with p-acetyl-phenylalanine (pAF) substituted for P133
220000 | N99pAF: hGH with p-acetyl-phenylalanine (pAF) substituted for N99

Test system: not listed separately
Assay: Pharmacokinetic studies, single s.c. dose in normal male Sprague-Dawley rats
Format: in vivo, rat
Conditions: single bolus s.c. dose of 1 mg/kg in rats, FIG. 15
Procedure: Pharmacokinetic properties of PEG-modified growth hormone compounds were compared to each other and to nonPEGylated growth hormone in male Sprague-Dawley rats (261-425 g) obtained from Charles River Laboratories. Catheters were surgically installed into the carotid artery for blood collection. Following successful catheter installation, animals were assigned to treatment groups (three to six per group) prior to dosing. Animals were dosed subcutaneously with 1 mg/kg of compound in a dose volume of 0.41-0.55 ml/kg. Blood samples were collected at various time points via the indwelling catheter and into EDTA-coated microfuge tubes. Plasma was collected after centrifugation, and stored at −80° C. until analysis. Compound concentrations were measured using antibody sandwich growth hormone ELISA kits from either BioSource International (Camarillo, Calif.) or Diagnostic Systems Laboratories (Webster, Tex.). Concentrations were calculated using standards corresponding to the analog that was dosed. Pharmacokinetic parameters were estimated using the modeling program WinNonlin (Pharsight, version 4.1). Noncompartmental analysis with linear-up/log-down trapezoidal integration was used, and concentration data was uniformly weighted.
Rats (n=3-4 per group) were given a single bolus dose of 1 mg/kg hGH wild-type protein (WHO hGH), His-tagged hGH polypeptide (his-hGH), or His-tagged hGH polypeptide comprising non-natural amino acid p-acetyl-phenylalanine at position 92 covalently linked to 30 kDa PEG (30 KPEG-pAF92(his)hGH). Plasma samples were taken over the indicated time intervals and assayed for injected compound as described.
Rats (n=3-6 per group) were given a single bolus dose of 1 mg/kg protein. hGH polypeptides comprising non-natural amino acid p-acetyl-phenylalanine covalently linked to 30 kDa PEG at each of six different positions were compared to WHO hGH and (his)-hGH. Plasma samples were taken over the indicated time intervals and assayed for injected compound as described. Concentration vs time curves were evaluated by noncompartmental analysis (Pharsight, version 4.1). Values shown are averages (+/− standard deviation). Cmax: maximum concentration; terminal t1/2: terminal half-life; AUC0->inf: area under the concentration-time curve extrapolated to infinity; MRT: mean residence time; Cl/f: apparent total, plasma clearance; Vz/f: apparent volume of distribution during terminal phase.

Substance | circulation (plasma concentrations) compared to control hGH
F92pAF-30KD PEG: His-tagged hGH polypeptide comprising p-acetyl-phenylalanine at position 92 covalently linked to 30 kDa PEG | dramatically extended circulation compared to control hGH

Same assay, conditions: single-dose 1 mg/kg bolus s.c., normal male Sprague-Dawley rats

Substance | AUC0−>inf | Cl/f [mL/h/kg] | Cmax [ng/mL] | MRT [h] | Terminal t1/2 [h]
G131pAF-30KPEG: hGH polypeptide comprising p-acetyl-phenylalanine at position 131 covalently linked to 30 kDa PEG | 6,978 ng × hr/ml | 161 | 497 | 14.28 | 4.41
R134pAF-30KD PEG: hGH polypeptide comprising p-acetyl-phenylalanine at position 134 covalently linked to 30 kDa PEG | 7,304 ng × hr/ml | 151 | 566 | 12.15 | 4.36
F92pAF-30KD PEG: His-tagged hGH polypeptide comprising p-acetyl-phenylalanine at position 92 covalently linked to 30 kDa PEG | 10,539 ng × hr/ml | 135 | 663 | 15.05 | 4.51
K145pAF-30KPEG: hGH polypeptide comprising p-acetyl-phenylalanine at position 145 covalently linked to 30 kDa PEG | 13,162 ng × hr/ml | 88 | 634 | 17.82 | 5.87
Y143pAF-30KPEG: hGH polypeptide comprising p-acetyl-phenylalanine at position 143 covalently linked to 30 kDa PEG | 17,494 ng × hr/ml | 59 | 803 | 18.83 | 6.02
